Here are results for five molecules from paper PMC10720262 (2023).

Residue numbers refer to the chain shown, from its start.

In the assay the target is PfCSP full length (Plasmodium falciparum (isolate NF54), UniProt P19597). The assay is described as follows: ELISA AUC. Background: ELISA stands for enzyme-linked immunosorbent assay.
Sequence of PfCSP full length (P19597 20-375): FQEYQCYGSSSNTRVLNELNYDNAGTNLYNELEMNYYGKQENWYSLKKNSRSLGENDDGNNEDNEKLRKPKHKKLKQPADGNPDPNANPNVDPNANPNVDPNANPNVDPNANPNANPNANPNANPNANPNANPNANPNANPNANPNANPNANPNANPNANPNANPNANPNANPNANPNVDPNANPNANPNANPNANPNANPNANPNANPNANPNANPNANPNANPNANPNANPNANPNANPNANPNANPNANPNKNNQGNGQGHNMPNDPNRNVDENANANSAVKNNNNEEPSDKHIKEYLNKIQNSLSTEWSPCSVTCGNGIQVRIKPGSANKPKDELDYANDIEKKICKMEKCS

B1: CL-437092 (antibody, V domains shown)
VH: QVQLVESGGGVVQPGGSLRLSCAASGFTLSSFGIHWVRQAPGKGLEWVALIWHDGSMKYYADSVKGRFTISRDNSKNTVDIQMNSLRVEDTAVYYCARPGIGSPGDHYTMDVWGHGTTVTVSS
VL: not shown
modifications: peptides N-terminally acetylated and C-terminally amidated
For the molecule B1, the binding score is 2.5.

B2: CL-441816 (antibody, V domains shown)
VH: QEQLVESGGGVVQPGRSLRLSCATSGFTFSTYGLHWVRQSPGKGLEWVTVIWYDGSNKFYADSVKGRFTISRDNSKNTLYLQMNSLRAEDTAVYYCARALYSSRWYGAFDIWGQGTMVTVSS
VL: QSVLTQPPSVSGAPGQRVTISCTGSSSNIGAGYDVHWYQLLPGTAPKLLIYGNSNRPSGVPDRFSGSKSGTSASLAITGLQAEDEADYYCQSYIRSLSGSVFGGGTKLTVL
modifications: peptides N-terminally acetylated and C-terminally amidated
On to B2, for which the binding score turned out to be 2.4.

B3: CL-513617 (antibody, V domains shown)
VH: QVQLVESGGGVVQPGRSLRLSCAASGFIFSNYGMYWVRQTPDKGLEWVALIWYDGGNKFYSDSVKGRFTVSRDNSKNTLYLQMNSLRDEDTALYYCARAGYFYGSGSSLDKWGQGTLVTVSS
VL: DIQMTQSPSTLSASVGDRVSITCRASQSISIWLAWYQQKPGKAPKLLIYKASSLESGVPSRFSGSGSGTEFSLTISSLQPDDFATYYCQQYNRYWTFGQGTKVEIK
modifications: peptides N-terminally acetylated and C-terminally amidated
Regarding B3, the binding score is 2.59.

B4: CL-464181 (antibody, V domains shown)
VH: QVQLVESGGGAVQAGTSLRLSCAASGFSFSYNGMHWVRQGPGKGLEWVAIIWYDGGNKFYADSVKGRFTISRDNSKKMLYLQMNRLRAEDTAVYYCARAWNFADNKYSMDVWGQGTTVTVSA
VL: B3 VL with S20T, I31C, K45Q, S72T, N92Y, R93I, E104D
modifications: peptides N-terminally acetylated and C-terminally amidated
In turn, B4 displayed a binding score of 2.4.

B5: CL-444653 (antibody, V domains shown)
VH: QVQLVESGGGVVQPGRSLRLSCTASGFTFSTYGMHWVRQAPGKGLEWVAIIWYDGGNKFYADSVKGRFTISRDNSKDTLYLQMNSLRAEDTAVYYCAKAWYKVDDKYSMDVWGQGTTVTVSS
VL: B3 VL with S20T, I31S, S72T, S77G, N92I, R93N
modifications: peptides N-terminally acetylated and C-terminally amidated
With B5, the binding score came to 2.3.
